Experimental data: the DeepSol protein solubility set

Test: soluble on expression in E. coli; label from the status in PepcDB or PDB records

Sequence | soluble on expression in E. coli
GETQPESAAFTAPSTDNPIRINFNENPLGMSPKAQAAARDAVVKANRYAKNEILMLGNKLAAHHQVEAPSILLTAGSSEGIRAAIEAYASLEAQLVIPELTYGDGEHFAKIAGMKVTKVKMLDNWAFDIEGLKAAVAAYSGPSIVYLVNPNNPTGTITPADVIEPWIASKPANTMFIVDEAYAEFVNDPRFRSISPMITQGAENIILLKTFSKIHAMAGMRVGYAVAHPTVIALMGRYVAGEKINFSGVDAALASMNDSAFITYSKKSNDVSRQILLKALEDLKLPYLPSEGNFVFHQLVVPLKDYQTHMADAGVLIGRAFPPADNWCRISLGTPQEMQWVADTMREFRKKSWI | soluble
MSTDKITFLLNWQPTPYHIPIFLAQTKGYFKEQGLDMAILEPTNPSDVTELIGSGKVDMGLKAMIHTLAAKARGFPVTSVASLLDEPFTGVLYLKGSGITEDFQSLKGKKIGYVGEFGKIQIDELTKHYGMKPEDYTAVRCGMNVAKYIIEGKIDAGIGIECMQQVELEEYLAKQGRPASDAKMLRIDKLACLGCCCFCTVLYICNDEFLKKNPEKVRKFLKAIKKATDYVLADPVKAWKEYIDFKPQLNNDLSYKQYQRCYAYFSSSLYNVHRDWKKVTGYGKRLAILPPDYVSNYTNEYLSWPEPEEVSDPLEAQRLMAIHQEKCRQEGTFKRLALPA | soluble
MSLTGETLFGTIELVGYRDNYGQIKIPRRPLNPGEKVYGVDYEFLSKFYKFDENTSINIGNLIGYDKGSNIVPVYLDVNKLVTEHLAVLAMTGSGKSYTVGRIIERLVAEMNGTVVVFDVHGEYGKAFEKGEIHFNNNLDFIEDEREKKSIQRIQENLIKMQNAGGGIKVYTPQIDSFDYKYSGKNHHLALQFDRFDMDDLSSILPGLTEAQERVLDVAIRYWKAKYNHPPRDIQDLTYLLSDEQGLEELKNWDNLTEGEAKALNNRSAAVASMKLTRVINEAKSFYTRAIGEPTDIYDMIGEKGNSVGRLVIIDLQGLSDDAKQIITALISSEIMRAASDKKRQIRPCFLVYEEGHNFAPAGIPSISKKIIKKIAAEGRKFGVGFAIISQRPSKLDPDVTSQCNTIITMRLKNPDDQRFIAKTSDMFSSSDIEELPSLSTGEALINGRSIPAPLLVKVGTKALIHGGESPEVIKEWGVFNGEGHHHHHH | not soluble
HMAMASKEMFEDTVEERVINEEYKIWKKNTPFLYDLVMTHALQWPSLTVQWLPEVTKPEGKDYALHWLVLGTHTSDEQNHLVVARVHIPNDDAQFDASHCDSDKGEFGGFGSVTGKIECEIKINHEGEVNRARYMPQNPHIIATKTPSSDVLVFDYTKHPAKPDPSGECNPDLRLRGHQKEGYGLSWNSNLSGHLLSASDDHTVCLWDINAGPKEGKIVDAKAIFTGHSAVVEDVAWHLLHESLFGSVADDQKLMIWDTRSNTTSKPSHLVDAHTAEVNCLSFNPYSEFILATGSADKTVALWDLRNLKLKLHTFESHKDEIFQVHWSPHNETILASSGTDRRLNVWDLSKIGEEQSAEDAEDGPPELLFIHGGHTAKISDFSWNPNEPWVICSVSEDNIMQIWQMAENIYNDE | soluble
MRKLTLPKDFLWGGAVAAHQVEGGWNKDGKGPSICDVLTGGAHGVPREITQNVVAGKYYPNHEAVDFYGHYKEDIRLFAEMGFKCFRTSIAWTRIFPNGDESQPNEAGLKFYDDMFDELLKYNIEPVITLSHFEMPLHLVQHYGGWTNRKVVDFFVRFAEVVFERYKHKVKYWMTFNEINNQRNWRAPLFGYCCSGVVYTEHENPEETMYQVLHHQFVASALAVKAARRINPQMKVGCMLAMVALYPFSCKPEDVMFAQESMRERYVFTDVQLRGYYPSYVLNEWERRGFNIKMEDGDLEVLREGTCDYLGFSYYMTNAVKAEGGSGDAISGFEGSVPNPYVKASDWGWQIDPVGLRYSLCELYERYQKPLFIVENGFGAYDKVEEDGSINDDYRIDYLRAHIEEMKKAVTYDGVDLMGYTPWGCIDCVSFTTGQYSKRYGFIYVNKHDDGTGDMSRSRKKSFNWYKEVIASNGEKL | not soluble
MMVEVRFFGPIKEENFFIKANDLKELRAILQEKEGLKEWLGVCAIALNDHLIDNLNTPLKDGDVISLLPPVCGG | not soluble
MGSDKIHHHHHHMRIQQLHYIIKIVETGSMNEAAKQLFITQPSLSNAVRDLEREMGIEIFIRNPKGITLTKDGVEFLSYARQVVEQTALLEERYKSQGHTRELFSVSAQHYAFVVNAFVSLLKETDMTRYELFLRETRTYEIIDDVKNFRSEIGVLFLNSYNHDVLTKMFDDNHLTYTSLFKAHPHIFVSKDNPLAKHQSVSLSDLEDFPYLSYDQGIHNSFYFSEEIMSQISHKKSIVVSDRATLFNLMIGLDGYTIATGILNSNLNGDNIVSIPLEVDDEIDIIYLKHEKANLSKMGEKFIDYLLEEVKFDK | not soluble
MSLMKNMARKNQKAPWEEEEEIIWVSRTELKNDMLALQKLGEELVELKPSALAKFPLPEDLAEAIKDAQRFKNEARRRQLQYIGKLMRHIDPEPLQAALDKLRNKHSQTTALLHKLEQLRDRIVAEGDSAIEVAMEQYPEADRQRLRLLARQASKEKAGNKPPKSSREIFQLLKEAMLAKQEIEEESEDDLDSAEEGHHHHHH | soluble
MKASFKGKFDVDKSGSVASLTFNAGNAKLRATMTDASFVAGPSFNGLSLAVEKPGFFIIDYNVPKKDVRFQFMNTIRIAEKPLNLTYIHMRGDNRTIVDGSFVIDPANKLSANYMVGTKNCKLKYTYVHGGIATFEPCYDVAKNMWDFAISHKLYGGDNLKATYQTSSKMLGLEWSNNSKSTGSFKVCASMNLAEELKPPKLTAETTWNLEL | soluble
MGSDKIHHHHHHMNAVLPRLAMRDIVKSFGSVRVLDGVSLDVMPGEIVALLGSNGAGKSTLMKILTANYTKNAGDIRVNDTLVDFASPRDAARVGITFLPQEISVFPELSVAENICMSADSKGTVDWSGMARRSAAVLDDLGFGHLSPDMLVADLPVAERRIIEIARALEGQADILVMDEPTASLSEQESEQIFTILRRLKDRGTSIVYISHYLKEVFEISDRIVVLRDGLNAGEFDPTTADVTKVVGAMLGKAAGSMFDDRDPLPASAPVVFTCAGLTLPGVIEDVSFDLRAGEILGIFGLIGSGVEVLGRAIFGTQGRPPAGAMTLNGTPYTPVSPRKGKEAGIGFVTAERKTDGIMADMSVRENIVAAFQSDLGHGPFTSPAREAAHTLDWIEKLGIKTSGPEQAIRLLSGGNQQKVCVARWLNPKVKMLILEEPTRGVDVGARREIYSHLVDFARSGLAVLVLSSDVEEVAGLSDRSLVIDRGRILAEFGRGATPGDLMAASAQSEHHD | not soluble
MKHESTKIPLVIFMHIPKTGGITLRNILDQQYRSEHILRLPQKNKLDNLLQKKGANIKKLQCVYGHHRFGVHEYFQQPFTYITMLRHPVERIISTYYFILQNERNRMHQKVKPLTFEQFVQSTDPDLQVPLTNHQTRYLSGERKPNLNKALQHMDTHFSVVGITELYNESLFIMKKKLGWDHISYQKKNVTKKRKRQTDIGLDTIEIIKRKNPLDLHLYETAKEKLQEHIKRLDSGARKELQQFLQDQNGFGPHGMAGDPLEHHHHHH | soluble
MEPKVYKPPISKAIGLVVGSVLPVNPRDLEKMMRRLGIKVEQLSADEARIVLGSGETMVFRSPTVIVMRAKGQPPMVYLVGDYTVEKPREETAAEITEEDVALVAEQAGVSMEEARKALEESGGDIAEAILRLKGEE | not soluble
MGIDPGTGSMDVLGFDDESNNVFLEESIPRDEVTRDPSLPLRIVEEASAKVGGLDAVVAPSGYGMPLKRASETAPGDICEATFIHSSDEVLGLRIVGLRRLMALFASSDLPAWFTPGVIHLPTVPAWRKVGRIDMGTADKLYTVAAALRTEVEYHGVEPEAARFIAVEAGMAYTAAVAVVGGKVVDGVGGTSGFHGFMGGGAMDGEAAYALAAVAPRFSKSLLFKGGAGWVAGVSSPVELEEKASEGGGLEALEMLGEGVVKSVATLLPSLRPEGGEVRVYVSGRLFSLGRLGSELRSRLRDFISSIGLTPRVLTIERLGSKTKEGASGAALVASGLAGGRYKWLVDHLELERSSGSIFDHLPVDEDLRRAVRLEFRSCSPLGEA | not soluble
MAKRVIIAGGNIAGTIVANRLVQKLEHEVNKGDVEIVALNKSDEHIYLPGQLLVGFGLETPGELVRKESELLDPRIKFLHGQKGTISKIDVANHSVQTADGVSHSYDYLVITTGVDYTWDEIPGYRSAAHTVYEYDDAIKMREALEKFDGGTIVVNTAKLPHRCPVAPLEVTLILDDYLRKRGIRDKTKIIYTYPVQGVFGRPITNKFMLRLFEQRGIEVHSPFTVTSVDPNNKVIESQEGEKLKFDMLIGIPPNMGAKVIEDSGIGDRRRWVPTDKFTLRMKDHSNVYVMGDATDLPVSKAGSTADFESYTVAHNIANDIKGNLGVKHYGGDVLCYIATGTDQATYIRFSYTMNESPPPPSYVHWWGKIMYNKMYWTVTAKAVVLEHHHHHH | not soluble
MGSDKIHHHHHHMNLKHIEAFRAVMVSGSMTAAAKALFTSQPNVSRLIAQLERDTGLQLFQRSGVRLIPTSEGEAFFREVERAFVGLQGLANAAAQIRNLGSGRLRIAAMPSAGMTLVPHAIKRFVELFPDVTVSLHVNTSGTVNHWTASQFCDLGVAVYVSEASDCEVEQLSDLAAVCVMPAAHRLAAKRSIKPEDLEGESFISLCHGDGTRALMDEVFQRAGVQRVMAIEAQYTAMCCEMVRHGMGVTLAHPIVARDFAGPDIAIRPFLPATRFQTYLLFPPHRPRERLASAFVEVLRELHDELLAEVVVPTPSVGRRRVVRSASKG | not soluble
GMTTENTTALLLIDFQNDYFSTYNGAKNPLVGTEAAAEQGAKLLAKFRQQGLPVVHVRHEFPTDEAPFFLPGSDGAKIHPSVAAQEGEAVVLKHQINSFRDTDLKKVLDDAGIKKLVIVGAMTHMCIDAVTRAAEDLGYECAVAHDACATLDLEFNGITVPAAQVHAAFMSALSFAYANVASADELIAGL | soluble
MFYKEENFKKTEIGEIPEDWEIVELKDVCKKIKAGGTPKTSVEEYYKNGTIPFVKIEDITNSNKYLTNTKIKITEEGLNNSNAWIVPKNSVLFAMYGSIGETAINKIEVATNQAILGIIPKDNILESEFLYYILAKNKNYYSKLGMQTTQKNLNAQIVKSFKIPLPPLEEQKQIAKILTKIDEGIEIIEKSINKLERIKKGLMHKLLTKGIGHSRFKKSEIGEIPEDWEVFEIKDIFEVKTGTTPSTKKSEYWENGEINWITPLDLSRLNEKIYIGSSERKVTKIALEKCNLNLIPKGSIIISTRAPVGYVAVLTVESTFNQGCKGLFQKNNDSVNTEFYAYYLKFKKNLLENLSGGSTFKELSKSMLENFKIPLPPLEEQKQIAKILSSVDKSIELKKQKKEKLQRMKKKIMELLLTGKVRVKT | soluble
AEGVKTTAEAPAAEPALAAYVPMPRPFLFNLPGPDRARLVEIKVQLMVRGQDDEVLTQKHIPLIEDALLTTFSGADVQKLSTQAGKDELRQLALLSVQNTLQPVTGRKVVEKVLFTGFVMQ | not soluble
MSLSAIPPDAIDDESRDTLTGLAGIASASDWLDRNGAKGFVHAMLLGLHRFRSVNLAYGQSAGDIALVELAQRIRIFADEEIGGDTLVARVGGGDFLVASAGKVSRERWQWLAEALARRVSRVLPLRGEELQLAPRIALLRGQPGEGGPALLDRLDQALTTLQQQPARRLQWADGSHLARGRSAARLEADMIGAMARDEIGIVFQPQYAVAGGDIVGVEALARWDHPQLGRIGAETLFALAERGDHVAQVSRHIAGRAMWQAVEWKPVIPLSLNITAEDLGDDRLVEDCRLLLAQTGYPPSSLTVEVTEHALIADFERSAAALEQLARLGVRIALDDFGAGYANFRTLKALPVNTLKLDASLVRDIDRDPRDRAILRAIVAMARALGQKVVVEGIERESQLQVLAAEGCDAFQGFLRSGPIPADQIAALSREGHHHHHH | soluble
